Source: patent publication US20190227052A1 (published 2019)
Where a chain is given by its changes, count along the chain named.

Target: T1, human NRP1 protein (human, UniProt O14786 22-856, limits assumed)
T1 construct: also called hNRP1 protein; neuropilin 1
T1 sequence (looked up): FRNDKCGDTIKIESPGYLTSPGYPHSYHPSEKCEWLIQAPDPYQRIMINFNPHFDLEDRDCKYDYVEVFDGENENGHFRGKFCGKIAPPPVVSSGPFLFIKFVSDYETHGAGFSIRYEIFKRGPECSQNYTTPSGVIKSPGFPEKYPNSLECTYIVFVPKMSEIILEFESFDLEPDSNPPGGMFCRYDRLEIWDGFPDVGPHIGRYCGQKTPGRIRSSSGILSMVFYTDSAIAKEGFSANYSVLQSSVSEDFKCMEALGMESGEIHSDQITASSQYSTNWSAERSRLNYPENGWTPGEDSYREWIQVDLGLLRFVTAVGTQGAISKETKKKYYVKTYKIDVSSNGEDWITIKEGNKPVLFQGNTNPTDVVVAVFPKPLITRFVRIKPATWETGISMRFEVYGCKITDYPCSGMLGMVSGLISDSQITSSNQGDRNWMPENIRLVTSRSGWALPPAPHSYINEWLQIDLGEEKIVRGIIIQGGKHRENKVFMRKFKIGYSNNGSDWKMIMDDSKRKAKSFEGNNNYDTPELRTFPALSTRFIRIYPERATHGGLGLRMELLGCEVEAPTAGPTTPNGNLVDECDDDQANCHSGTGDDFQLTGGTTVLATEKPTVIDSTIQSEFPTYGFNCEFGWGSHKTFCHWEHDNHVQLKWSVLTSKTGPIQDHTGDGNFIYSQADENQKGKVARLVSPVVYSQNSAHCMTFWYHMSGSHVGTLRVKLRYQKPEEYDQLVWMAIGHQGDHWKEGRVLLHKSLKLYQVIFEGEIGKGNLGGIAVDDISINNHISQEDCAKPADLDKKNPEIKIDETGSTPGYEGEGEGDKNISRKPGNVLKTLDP
Assay: SPR, Biacore T100

B1: 3H10 scFv (scFv, V domains shown)
VH: EVQLLESGGGLVQFQQSLRLSQAASQFTFSSYYMSWVRQAFGKGLEWVSAISPGSSNKYYADSVKGRFTISRDNSKNTLYLQMNELRAEDTAVYYCARRKYMFDYWGQGTLVTVSS
VL: GSVLTQPPSASGTPGQRVTISCTGESSNIGNNDVYWYQQLPGTAFKLLIYSQSNRPSGMPDRFSGSKSGTSASLAISGLRSEDEADYYCASWDSSLSGYVFGGGTKLTVTL
Work on B1 yielded a Kd of 295 nM.

B2: 1A03 scFv (scFv, V domains shown)
VH: B1 VH with Q15G, Q16G, Q26G, P53F, K65Q, Y101K, M102S
VL: QSVLTQFFSASGTPGQRVTISCSGFSSNIGNNDVSWYQQLFGTAPKLLIYSCNNRPSGVPDRFSGSKSGTSASLAISGLRSSDEADYYCGAWVASLSAYVFGGGTKLTVTL
B2 gave a Kd of 89.4 nM.
